# According to article PMC8588329:
# Target: recombinant Plasmodium knowlesi lactate dehydrogenase (Plasmodium knowlesi)
# Assay: SEC; Superdex 200 10/300 GL, 50 mM phosphate buffer pH 7.4, 250 mM NaCl, 0.50 mL/min; elution volume 13 mL set against a calibration curve of protein standards
substance,measurement,value
recombinant Plasmodium knowlesi lactate dehydrogenase (enzyme),stoichiometry N,4
